One experiment has as its target mouse Tie2 (mouse) (UniProt Q02858). Description: cell-based or functional assay.
Experiment [1] deals with human angiopoietin-2 (human) (UniProt O15123). Description: HTRF; competition with huTie-2-Fc-APC for biotinylated hAng2. For orientation: TR-FRET usually uses a lanthanide donor and a delayed reading to cut background.
Experiment [2] addresses human angiopoietin-1 (human) (UniProt Q15389). Description: HTRF; competition with huTie-2-Fc-APC for biotinylated hAng1.

“And” between values parts separate entries of the source, which are not always exact repeats. Equal values may be shown once.

human angiopoietin-1 (human), sequence (Q15389 20-498 limits assumed): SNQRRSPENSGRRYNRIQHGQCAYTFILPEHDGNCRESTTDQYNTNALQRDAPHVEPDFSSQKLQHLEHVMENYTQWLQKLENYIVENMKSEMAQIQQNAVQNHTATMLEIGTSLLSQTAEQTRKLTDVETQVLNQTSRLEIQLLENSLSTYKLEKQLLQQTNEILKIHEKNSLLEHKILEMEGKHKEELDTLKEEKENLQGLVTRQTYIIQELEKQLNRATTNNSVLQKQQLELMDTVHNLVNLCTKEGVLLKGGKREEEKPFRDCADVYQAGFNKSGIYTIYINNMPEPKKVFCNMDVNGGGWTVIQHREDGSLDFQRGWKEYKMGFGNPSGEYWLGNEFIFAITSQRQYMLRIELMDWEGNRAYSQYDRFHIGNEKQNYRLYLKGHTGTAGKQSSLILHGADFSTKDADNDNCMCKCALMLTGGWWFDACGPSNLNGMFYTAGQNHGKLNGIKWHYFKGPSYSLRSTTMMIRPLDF
human angiopoietin-2 (human), sequence (O15123 19-496 limits assumed): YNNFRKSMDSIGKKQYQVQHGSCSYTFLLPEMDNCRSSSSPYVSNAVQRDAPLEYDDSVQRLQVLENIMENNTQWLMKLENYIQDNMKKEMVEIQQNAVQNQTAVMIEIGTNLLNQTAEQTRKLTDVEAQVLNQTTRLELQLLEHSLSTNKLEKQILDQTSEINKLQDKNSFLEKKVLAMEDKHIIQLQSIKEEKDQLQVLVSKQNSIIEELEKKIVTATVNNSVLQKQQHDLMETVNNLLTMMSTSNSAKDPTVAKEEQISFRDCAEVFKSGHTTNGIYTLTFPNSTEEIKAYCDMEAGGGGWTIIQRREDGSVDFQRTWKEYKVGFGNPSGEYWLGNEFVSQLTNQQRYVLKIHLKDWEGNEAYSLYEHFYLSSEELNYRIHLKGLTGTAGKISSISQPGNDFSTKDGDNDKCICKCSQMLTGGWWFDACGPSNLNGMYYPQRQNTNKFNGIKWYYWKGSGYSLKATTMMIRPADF
mouse Tie2 (mouse), sequence (Q02858 23-1122): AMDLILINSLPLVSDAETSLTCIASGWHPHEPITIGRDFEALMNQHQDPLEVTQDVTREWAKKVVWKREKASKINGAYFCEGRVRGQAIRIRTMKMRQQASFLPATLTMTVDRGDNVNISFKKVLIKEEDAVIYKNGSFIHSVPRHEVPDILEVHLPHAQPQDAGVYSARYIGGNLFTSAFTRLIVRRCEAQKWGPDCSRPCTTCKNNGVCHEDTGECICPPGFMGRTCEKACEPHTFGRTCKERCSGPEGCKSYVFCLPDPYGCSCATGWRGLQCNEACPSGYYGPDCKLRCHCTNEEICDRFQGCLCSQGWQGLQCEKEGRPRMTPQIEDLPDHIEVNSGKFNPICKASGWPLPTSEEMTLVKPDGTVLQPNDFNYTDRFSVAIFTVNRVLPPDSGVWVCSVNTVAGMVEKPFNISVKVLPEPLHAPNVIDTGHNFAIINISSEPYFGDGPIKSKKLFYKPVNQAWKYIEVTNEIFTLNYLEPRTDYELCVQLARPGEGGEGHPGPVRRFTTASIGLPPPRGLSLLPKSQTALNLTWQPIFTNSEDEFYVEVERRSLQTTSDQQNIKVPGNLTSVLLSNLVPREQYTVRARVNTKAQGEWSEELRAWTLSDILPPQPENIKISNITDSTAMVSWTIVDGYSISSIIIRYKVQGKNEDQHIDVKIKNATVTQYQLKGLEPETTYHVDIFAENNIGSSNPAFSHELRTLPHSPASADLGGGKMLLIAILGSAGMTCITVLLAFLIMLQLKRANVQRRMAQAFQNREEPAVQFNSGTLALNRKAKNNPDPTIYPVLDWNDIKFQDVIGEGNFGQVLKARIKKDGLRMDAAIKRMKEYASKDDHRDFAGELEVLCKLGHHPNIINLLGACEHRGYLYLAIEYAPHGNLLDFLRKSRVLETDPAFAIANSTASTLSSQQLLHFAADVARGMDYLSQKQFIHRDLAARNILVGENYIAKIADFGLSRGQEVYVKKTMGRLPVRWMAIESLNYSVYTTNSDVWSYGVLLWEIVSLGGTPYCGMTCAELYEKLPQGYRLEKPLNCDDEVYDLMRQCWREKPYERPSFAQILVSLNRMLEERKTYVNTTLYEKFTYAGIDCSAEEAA

Consider “recombinant Ang1 (R&D Systems Inc.) (ligand)”, for which the Tie2 phosphorylation in mouse lung endothelium (immunoprecipitation-Western blot) with mouse Tie2 (mouse) worked out at 5 fold.

Turning to AMG 386 (Fc fusion), the IC90/IC50 is 4.1 and 4.4 in experiment [1]; 41 and 71 in experiment [2].
